Data reported in patent US20230201308A1, “TREATMENT OF CORONAVIRUS INFECTION WITH […]” (Eiger Biopharmaceuticals, Inc., priority 2020, published 2023).
Where two headings read alike, the source gives them in different places.

System: SARS-CoV-2
Details: for All cause death or hospitalization for COVID-19: Bayes prob, Dichotomous / All cause death or hospitalization for COVID-19: Bayes prob, TTE / All cause death or hospitalization for COVID-19: HR (95% CrI), TTE / All cause death or hospitalization for COVID-19: RR (95% CrI), Dichotomous / ER visit ≥6 h or hospitalization due to COVID-19: Bayes prob, Dichotomous / ER visit ≥6 h or hospitalization due to COVID-19: Bayes prob, TTE / ER visit ≥6 h or hospitalization due to COVID-19: HR (95% CrI), TTE / ER visit ≥6 h or hospitalization due to COVID-19: RR (95% CrI), Dichotomous: vs placebo
[1] = ITT preliminary, n=916 vs placebo 1020, 28 days
[2] = ITT preliminary, n=916 vs placebo 1020, 28 days, listed as Interferon lambda
[3] = ITT preliminary, n=916 vs placebo 1020, 28 days, listed as Lambda
[4] = Treated within 3 days of symptom onset, n=539 vs placebo 586
[5] = Treated within 5 days of symptom onset, n=800 vs placebo 879

B1: pegylated interferon lambda-1a (protein)
chain: MKPTTTGKGCHIGRFKSLSPQELASFKKARDALEESLKLKNWSCSSPVFPGNWDLRLLQVRERPVALEAELALTLKVLEAAAGPALEDVLDQPLHTLHHILSQLQACIQPQPTAGPRPRGRLHHWLHRLQEAPKKESAGCLEASVTFNLFRLLTRDLKYVADGNLSLRTSTHPEST
modifications: PEG
notes: 180 mcg subcutaneous injection
In the case of B1, the “Death or hospitalization due to COVID-19, % of patients” value [1] is reported as “(2.4%)”, the “Death or hospitalization due to COVID-19, RR (95% CrI) vs placebo” value [1] is reported as 0.61 (0.36, 0.99) and the “Hospitalization for COVID-19, RR (95% CrI) vs placebo” value [1] is reported as 0.58 (0.34, 0.95). The “Hospitalization or ER (any duration) for COVID-19, % of patients” value [1] was “(10.6%)”, the “Hospitalization or ER (any duration) for COVID-19, Pr (Superiority)” value [1] was 0.984 and the “Hospitalization or ER (any duration) for COVID-19, RR (95% CrI) vs placebo” value [1] was 0.77 (0.60, 0.98). For the same molecule, the “Hospitalization or ER ≥6 h for COVID-19, Pr (Superiority)” value [1] was 0.999, the “Hospitalization or ER ≥6 h for COVID-19, RR (95% CrI) vs placebo” value [1] was 0.50 (0.31, 0.77) and the “Death due to COVID-19, % of patients” value [2] was “(0.1%)”. For the same molecule, the “Hospitalization for COVID-19, % of patients” value [2] was “(2.3%)”, the “Hospitalization or ER ≥6 h for COVID-19, % of patients” value [2] was “(2.7%)” and the “Death due to COVID-19, % of patients” value [3] was 0.1%. The “Hospitalization for COVID-19, % of patients” value [3] was 2.3%, the “Hospitalization or ER ≥6 h for COVID-19, % of patients” value [3] was 2.7% and the “All cause death or hospitalization for COVID-19: events/patients” value (Omicron and not vaccinated) was 0/9. For the same molecule, the “ER visit ≥6 h or hospitalization due to COVID-19: events/patients” value (Omicron and not vaccinated) was 0/9, the “All cause death or hospitalization for COVID-19: Bayes prob, Dichotomous” value (Omicron and not vaccinated) was 0.532 and the “All cause death or hospitalization for COVID-19: Bayes prob, TTE” value (Omicron and not vaccinated) was 0.912. For the same molecule, the “All cause death or hospitalization for COVID-19: HR (95% CrI), TTE” value (Omicron and not vaccinated) was 0.00 (0.00, 4.43), the “All cause death or hospitalization for COVID-19: RR (95% CrI), Dichotomous” value (Omicron and not vaccinated) was 0.90 (0.03, 10.04) and the “ER visit ≥6 h or hospitalization due to COVID-19: Bayes prob, Dichotomous” value (Omicron and not vaccinated) was 0.532. The “ER visit ≥6 h or hospitalization due to COVID-19: Bayes prob, TTE” value (Omicron and not vaccinated) was 0.912, the “ER visit ≥6 h or hospitalization due to COVID-19: HR (95% CrI), TTE” value (Omicron and not vaccinated) was 0.00 (0.00, 4.43) and the “ER visit ≥6 h or hospitalization due to COVID-19: RR (95% CrI), Dichotomous” value (Omicron and not vaccinated) was 0.90 (0.03, 10.04). The “All cause death or hospitalization for COVID-19: events/patients” value (Omicron and onset ≤3 days) was 0/281, the “ER visit ≥6 h or hospitalization due to COVID-19: events/patients” value (Omicron and onset ≤3 days) was 0/281 and the “All cause death or hospitalization for COVID-19: Bayes prob, Dichotomous” value (Omicron and onset ≤3 days) was 0.977. For the same molecule, the “All cause death or hospitalization for COVID-19: Bayes prob, TTE” value (Omicron and onset ≤3 days) was 0.9982, the “All cause death or hospitalization for COVID-19: HR (95% CrI), TTE” value (Omicron and onset ≤3 days) was 0.00 (0.00, 0.35) and the “All cause death or hospitalization for COVID-19: RR (95% CrI), Dichotomous” value (Omicron and onset ≤3 days) was 0.14 (0.00, 0.96). For the same molecule, the “ER visit ≥6 h or hospitalization due to COVID-19: Bayes prob, Dichotomous” value (Omicron and onset ≤3 days) was 0.998, the “ER visit ≥6 h or hospitalization due to COVID-19: Bayes prob, TTE” value (Omicron and onset ≤3 days) was 0.9999 and the “ER visit ≥6 h or hospitalization due to COVID-19: HR (95% CrI), TTE” value (Omicron and onset ≤3 days) was 0.00 (0.00, 0.17). For the same molecule, the “ER visit ≥6 h or hospitalization due to COVID-19: RR (95% CrI), Dichotomous” value (Omicron and onset ≤3 days) was 0.08 (0.00, 0.50), the “All cause death or hospitalization for COVID-19: events/patients” value (Omicron and vaccinated) was 2/428 and the “ER visit ≥6 h or hospitalization due to COVID-19: events/patients” value (Omicron and vaccinated) was 2/428. For the same molecule, the “All cause death or hospitalization for COVID-19: Bayes prob, Dichotomous” value (Omicron and vaccinated) was 0.876, the “All cause death or hospitalization for COVID-19: Bayes prob, TTE” value (Omicron and vaccinated) was 0.911 and the “All cause death or hospitalization for COVID-19: HR (95% CrI), TTE” value (Omicron and vaccinated) was 0.34 (0.05, 1.52). For the same molecule, the “All cause death or hospitalization for COVID-19: RR (95% CrI), Dichotomous” value (Omicron and vaccinated) was 0.46 (0.09, 1.69), the “ER visit ≥6 h or hospitalization due to COVID-19: Bayes prob, Dichotomous” value (Omicron and vaccinated) was 0.999 and the “ER visit ≥6 h or hospitalization due to COVID-19: Bayes prob, TTE” value (Omicron and vaccinated) was 0.9998. The “ER visit ≥6 h or hospitalization due to COVID-19: HR (95% CrI), TTE” value (Omicron and vaccinated) was 0.11 (0.02, 0.42), the “ER visit ≥6 h or hospitalization due to COVID-19: RR (95% CrI), Dichotomous” value (Omicron and vaccinated) was 0.17 (0.04, 0.53) and the “All cause death or hospitalization for COVID-19: events/patients” value (Omicron subgroup) was 2/439. The “ER visit ≥6 h or hospitalization due to COVID-19: events/patients” value (Omicron subgroup) was 2/439, the “All cause death or hospitalization for COVID-19: Bayes prob, Dichotomous” value (Omicron subgroup) was 0.914 and the “All cause death or hospitalization for COVID-19: Bayes prob, TTE” value (Omicron subgroup) was 0.9477. For the same molecule, the “All cause death or hospitalization for COVID-19: HR (95% CrI), TTE” value (Omicron subgroup) was 0.29 (0.04, 1.27), the “All cause death or hospitalization for COVID-19: RR (95% CrI), Dichotomous” value (Omicron subgroup) was 0.41 (0.08, 1.45) and the “ER visit ≥6 h or hospitalization due to COVID-19: Bayes prob, Dichotomous” value (Omicron subgroup) was >0.9999. The “ER visit ≥6 h or hospitalization due to COVID-19: Bayes prob, TTE” value (Omicron subgroup) was 0.9999, the “ER visit ≥6 h or hospitalization due to COVID-19: HR (95% CrI), TTE” value (Omicron subgroup) was 0.11 (0.02, 0.43) and the “ER visit ≥6 h or hospitalization due to COVID-19: RR (95% CrI), Dichotomous” value (Omicron subgroup) was 0.17 (0.04, 0.50). The “risk reduction, hospitalization alone” value (Phase 3 study, single s.c. dose within 7 days of symptom onset) was 44%, the “Log odds (95% CrI) vs Placebo, Bayesian logistic regression” value (Table 11 Model 1: Treatment alone) was −0.69 (−1.17, −0.26) and the “Log odds vs Placebo, Bayesian logistic regression” value (Table 11 Model 2: Unvaccinated as an effect-modifier) was −0.67. The “OR (95% CrI) vs Placebo, Bayesian logistic regression” value (Table 12 Model 1: Treatment alone) was 0.50 (0.31, 0.77), the “OR (95% CrI) vs Placebo, Bayesian logistic regression” value (Table 12 Model 2: Treatment + Vaccination) was 0.49 (0.29, 0.78) and the “OR (95% CrI) vs Placebo, Bayesian logistic regression” value (Table 12 Model 3: Treatment + Vaccination + Early onset (≤3 days)) was 0.48 (0.29, 0.77). For the same molecule, the “OR (95% CrI) vs Placebo, Bayesian logistic regression” value (Table 12 Model 4: Treatment + Vaccination + Early onset (≤5 days)) was 0.48 (0.29, 0.77), the “Death due to COVID-19, % of patients” value [4] was “(0%)” and the “Death due to COVID-19, RR (95% CrI) vs placebo” value [4] was 0.21 (0.01, 1.66). The “Death or hospitalization due to COVID-19, % of patients” value [4] was “(1.5%)”, the “Death or hospitalization due to COVID-19, RR (95% CrI) vs placebo” value [4] was 0.40 (0.18, 0.83) and the “Hospitalization for COVID-19, % of patients” value [4] was “(1.5%)”. The “Hospitalization for COVID-19, RR (95% CrI) vs placebo” value [4] was 0.40 (0.18, 0.82), the “Hospitalization or ER (any duration) for COVID-19, % of patients” value [4] was “(10%)” and the “Hospitalization or ER (any duration) for COVID-19, Pr (Superiority)” value [4] was 0.964. For the same molecule, the “Hospitalization or ER (any duration) for COVID-19, RR (95% CrI) vs placebo” value [4] was 0.75 (0.54, 1.03), the “Hospitalization or ER ≥6 h for COVID-19, % of patients” value [4] was “(2%)” and the “Hospitalization or ER ≥6 h for COVID-19, Pr (Superiority)” value [4] was 0.996. The “Hospitalization or ER ≥6 h for COVID-19, RR (95% CrI) vs placebo” value [4] was 0.43 (0.21, 0.81), the “Death due to COVID-19, % of patients” value [5] was “(0.1%)” and the “Death due to COVID-19, RR (95% CrI) vs placebo” value [5] was 0.39 (0.05, 1.96). For the same molecule, the “Death or hospitalization due to COVID-19, % of patients” value [5] was “(2.2%)”, the “Death or hospitalization due to COVID-19, RR (95% CrI) vs placebo” value [5] was 0.56 (0.32, 0.96) and the “Hospitalization for COVID-19, % of patients” value [5] was “(2.1%)”. The “Hospitalization for COVID-19, RR (95% CrI) vs placebo” value [5] was 0.53 (0.29, 0.91), the “Hospitalization or ER (any duration) for COVID-19, % of patients” value [5] was “(10.2%)” and the “Hospitalization or ER (any duration) for COVID-19, Pr (Superiority)” value [5] was 0.992.
